Experiment: soluble on expression in E. coli; label from the status in PepcDB or PDB records

Row | Sequence | soluble on expression in E. coli
1 | MGSDKIHHHHHHMRKKNYYLVSDGKLRRHENTIYFENEDGKRPIPINSIYAIYALGSLSITSKAISLLAKEGVCIHFFNRYGYYIGSFYPRESLVSGEVVLRQAEHHLDSEKRLHLARAFVEGAILNMARVLKKAEQDDSDVIASLQHLSSAKSIVELMGAEAAARNAYYTKFDEILKNFEFGKRSRMPPENEVNAMISFGNSLLYSAVLSEIYHTQLNPAISYLHEPSERRFSLALDIAELFKPVIVDRLIFYLVNNGIVTESDFDSRLGGILLSEEGKKKFVRHFNERLEKTVKHRKLNRKVSYQRLIRLECYKLVKHFTAVEKYSPFVMWW | not soluble
2 | MGSDKIHHHHHHMRKLKKYKPTAFIADGSYYDEDAADYAVAFIEALSHTKGLWAGKPFELIDWQEQIIRDLFGILKPDGYRQFNTAYVEIPKKMGKSELAAAIALLLTCGDGEERAEVYGCAADRQQASIVFEVAADMVRMCPALNKRVKLLASTKRLVYLPTNSFYQVLSAEAYSKHGFNIHGVVFDELHTQPNRKLFDVMTKGSGDARTQPLYFLITTAGTDTQSICYETHQKAVDIIEGRKYDPTFYPVIYGAKEEDDWTDPKVWKKANPSLGITVGIDKVRAACESAKQNPAEENSFRQLRLNQWVKQSVRWMPMAKWDACAFPVIPESLEGRVCYGGLDLSSTTDITAFVLVFPPEDETDKYIVLPYFWMPEDNIDLRVRRDHVQYDLWEKQGYILTTEGNVVHYGYIERFIEELGEKYNIREIAFDRWGAVQMVQNLEGAGFTVVPFGQGFKDMSPPTKELMKLTLEERIAHGGHPVLRWMMDNIFIKTDPAGNVKPDKEKSTEKIDGAVATIMALDRAIRCGSGNSGDSVYDERGLIVF | not soluble
3 | MGSDKIHHHHHHMRKSIVLSTAMALAAGTAAYAAEISDGKVKIGILNDQSGVYANFGGKYSYEAAKMAVEDFGGKVLGAPVEVVTADHQNKADVASNIARQWYDTEQVDSIMELTSSSVGLAVQALSKDKKKITVNTGAATTELTGKQCSPYGFHWAYDTYSLAVGTGGALVKQGGDSWFFLTADYAFGYSLEENTSNFVKANGGKVLGSVRHPLATTDYSSFLLQAQSSGAKVIGLANAGLDTSNAIKQASEFGIVAGGQRLAALLFTLAEVHGLGLEAAQGLTLTEGFYWDRDDESRKFGERFKERTGAMPNMIHTGTYSAVLHYLKAIEKAGTDDADAVAKAMKEMPVNDVFAKDGHVAANGRMIHDMYLMEVKKPDESKQPWDYYKVLATIPGKEAFMDPTKSGCPLVKQ | not soluble
4 | MGSDKIHHHHHHMRLKISLLSPADSFEIDLNHSYHLASAIYRAIERADPSLSIELHKPDVPKFFTFSKLFIPKRKFRIEGEKMVSDCEEAYFFFSTLRNEVAASLVEGLLSKPEIRICGVDFIVSEVSVLPEREVKGREKFVTLSPIYASTSVGENGRRRIFDLYPKDSKFYEVILQNLVKKYVLYYKSAPENLDFHMKPLNVKAKRIRLKDTFHRCVEMVFKAEGSPELLDVGYKAGFGSKNSMGFGMVKVV | not soluble
5 | MGSDKIHHHHHHMRLYESLLEMCLNKAWEHQTLALENPSVACMVLDKNHEILSLETHKKAKTPHAEVLAAQSALKILRPSLKNDLEKLEDPKTLSDFLKTHHDNAFTDCVFLITLEPCNSYGKTPACSELLEILKPKRVVIATEENEAKKGGLARLQKARIETIICHNLENKAKDLLLPFRVMEQKGRFNLFKLALRMNGDYHHGKITGQKSVIFTHNQRAICDTLIVSGKTIRTDNPLLDARFCDSFYQNKNPNIAILSKRSIDPNSKVFSAPNRLVNTFHDPKDLPLEKGFNFIEGGWELFESLRDKIDALLLHSHASMIGEAFKALALKTPFKGRLLHAQILENEALLWIENS | not soluble
6 | MGSDKIHHHHHHMRSIADQYNVSTNSVSRRILALGKQTMPAYDGLPQTLCIDEFRSTSNQMSFITIDGQKHDIITILPGRQTNEIKQFFLNHYSLKNREQVTQVVMDLNAQYQTFIHYLFPNAKLIVDNFHLVQMALRALNQTRVQLMKKYHPNTPEYWVLKSYWRLYLMNYEALEKSQPQWFSHLRNRLTQEQLIWSGLNLSHEFENTYFTAHKLVEAFRSRDYAAFTATLDEVENVSPQLFTTIKTFIKNKKLIQNMTSSTLSNGPIEGVNRKIKQIKRTAYGYRNWKNFVFRIQIEFKIRLKKRNPVRK | not soluble
7 | MGSDKIHHHHHHMRVASERLILGDRITESLFLHTDIPIVEAGKKIGADELRRIKRFLIKEVDIEKRPEGMSEASMMDQELDDMIEDSIFDSLIETYNQVFTSWEQGLVPNVYDALRWVKESMPETMRRDDILPYFLERGTEAYTVRHAIYRGAIAQLLAEAAGKERKMIHDLWVASYFADCGLARIMEWRHTKRYEAMQQEIFHRHPAMAFQALQKENIISDTVKRLIVQHHERLDGSGYPLKVKGDKIMDHTRLFIVADVFAAMTSWRPYREAYKVYDAYCHLKARPMQYDSKYVMLLGQLLLPIEPGDRVLMSNGKIATVLRKNSIFDRPVIAYEEHNRRIVKDLMEDRQLNIIQLMD | not soluble
8 | MGSDKIHHHHHHMRVIDGGVTAPKGFKANGYKEGKFGVAIIISEKDAVGAGTFTTNKVVAHPVVLSRELIKNRDKFRAIVANSGNANCFTKDGMEDAKEMQRLVAELFNINEDEVLVASTGVIGRKMDMNIIKDRINKVYNLIKEGNSSINAAKAIMTTDTKPKEIAVEFEVNGKTVRVGGIAKGAGMIAPNMLHATMLCFITTDIEIDKESLTNILQKVVDKTFNNISVDGDTSTNDTVFVLANGLSGVNYEECGEEFENALLYVCRELAKMIVKDGEGATKFMEVVVKGAKTEEDAVKASKAIVNSLLVKTAVFGGDPNWGRIVAAVGYSGADFNPEVVDVILSNYKDEVYLVKDGIPLADEGTEELKKAEEIMKSDEIKIVVDLKMGEFENVCYGCDLSYEYVRINAEYTT | not soluble
9 | MGSDKIHHHHHHMRVKIYTLADDYAGYNSPFWAQHGVSFLVEVEGKKILFDTASYAEPILFNMKLLNLNPRDIDMIVLSHNHFDHTGGLLGILREINRKVPIFAHPEIFKVSFALEPEFMYAGTPRLKEEAEKLGGIWILTRDPITLMPGVFTLGEIKEEEKVEFEKGSTGLFKIEDGRVIEDKVEDEIGLAINTRKGLVVLAGCAHPGIVSMVKKAIKLSGNDKVYAVLGGFHLINAEDSRIEKTVEAFKELEVKKVYAGHCTGLKAESRFAQELGDRFEKLHSGKIIEIS | not soluble
10 | MGSDKIHHHHHHMRVNMYLSRQIQPLVSRLLKQFPAVLVTGARQVGKSTLLKHIAKDYAYLTFDDPLLLEQAKQEPRLFFLNHAGNVILDEVQYAQELFSLLKLEIDKQQKNGMFLLSGSQAFELMQNVSETLAGRIAILKLQGLSLREILNVEFYLPFIPSRDYLASREKMLKSPENIWQIIHKGDMPRLYQQETDWEIYYSSYVSTYIERDVRQLTNITNTTDFTRFMVALASRSGELLNYSNVAQEVGVSNETIKRWTAILQTSGIIYLLQPYSNNHLKRTIKTPKIYFLNTGLMAYLTKWLTPETISKGAKSGQFFESFVVSEIIKSFTNNGIEPPLYFYRNTNQKEIDLIIEYDRTIYPIEIKTTANPNKKMAKSFALLNSLGKESTIGLGVIINQYPNKHYLAENLVALPVRYL | not soluble
11 | MGSDKIHHHHHHMRYFARIAELGSFTRAASELGVAQPALSLHVRALEDQLGLQLLNRTSRGVVVTEAGQTLLVHAQAILRAVEQAEAATREQAKYPSGDVSLGILSSLSPILSIPVLEACDRRFPKIRLTISEGDSQTLRTATDIHAHDLAVNLLDVAKPTAVPLFDERLYAVGPLNAFTQRQNDLPLREALSLPLIMPSQRHGIRILLEKQALILGQKINIVRVIEGVASTKAAIRAGLGLTILGRGAVYADHQAGQLSVIPLRAPELFRRLVLDMPVNHPPTKAVLEVRQILMEVIKRLGGEGHWSCLA | not soluble
12 | MGSDKIHHHHHHMRYFSTDSPEVKTIVAQDSRLFQFIEIAGEVQLPTKPNPFQSLVSSIVEQQLSIKAASAIYGRVEQLVGGALEKPEQLYRVSDEALRQAGVSKRKIEYIRHVCEHVESGRLDFTELEGAEATTVIEKLTAIKGIGQWTAEMFMMFSLGRLDVLSVGDVGLQRGAKWLYGNGEGDGKKLLIYHGKAWAPYETVACLYLWKAAGTFAEEYRSLEELLHHGNQC | soluble
13 | MGSDKIHHHHHHMRYTYRHIGILTISLIVASCSFSQKQADNNHDKDMNPNVKIVVLDPGHFHASLLQKNPLASVNDTIRVYAPEGAEVKQYLNDINSYNQRAENPTSWKEEIYIGGDYLSRMLSDRQGDVVVLAGNNQKKTNYILEAIKAGYNVLSDKPLAINKKDFDLLIQAYQLAKERKLLLYDLMTERYDILNIIEKALLNNPDLFGELQKGSLNDPSVSMESVHHFFKNVSGKPLIRPVWYYDTEQQGEGIADVTTHLIDLVNWQCFPNETIRYQSDVEVLKARHWPTRITLPEFSQSTQADTFPAFLNKYINNNVLEVLANGSLNYTVKGIHIGMKVIWNYTPPSDGGDTFTSLKKGSKATLKTIQDKESGFVKQLYIQRAADSDHSEFESQLQKAIKQLQATYPFLSVKKMNEGLYLIDIPQADRLGHEAHFSKVAEAFLGYLHDKNMPEWENENTISKYYITTTAVELAKKEK | not soluble
14 | MGSDKIHHHHHHMSALVDPVTDTDLDAYVDDQLDVTRRIEVEAFLSTRPEAAARVMSDLRTRDELRVALAGSKGMARPATADAARRLERGLARGRIFGVLQRSAAVAAFVAAGWLANGIIGPMSVTKVVASPQPPAYVDEAVRAHRTTLVRETMPSQPEAPNYSAGEIRAATAIVMPSLPKDWKVRDVQIYPSRFGPSVEMAVDTKDMGLVSLFAIRPGTFDVVKPTVAPSGDISSAYFQIGEVAYAVVAKSGVRDLDRAAETLARTLY | not soluble
15 | MGSDKIHHHHHHMSATSLYRLFAPQIEFLSPAEKQVFFYIDNHISTIEKMSLTSLAESTNVSTTTVIRMCHKLKLSGFSELKFLLHSDKTETKPLSKDYSSTFLEKIRLGIEQLPKKEIEQVATRIAYAPKIYIACLGMTKTLGEYFSKSLVTSKKNVVFTYDSFIIDILPQIVERDDLIIIISESGGTENTLSLAEHLKYNLSNVIAIVNNPNAQISQYVETIIYASSEEFDEDSFKHHHAPLLIVIDLILNIFEQQKKLI | not soluble
16 | MGSDKIHHHHHHMSDGRLTALFPAFPHPASNQPVFAEASPHDDELMTQAVPQVSCQQALAIAQQEYGLSGQMSLLQGERDVNFCLTVTPDERYMLKVINAAEPADVSNFQTALLLHLARQAPELPVPRIRSTKAGQSETGVEIDGVLLRVRLVSYLAGMPQYLASPSTALMPQLGGTLAQLDNALHSFTHPAANRALLWDISRAEQVRPYLDFVSEPQQYQHLQRIFDRYDSNVAPLLTTLRRQVIHNDLNPHNVLVDGSSPTRVTGIIDFGDAVFAPLICEVATALAYQIGDGTDLLEHVVPFVAAYHQRIPLAPEEIALLPDLIATRMALTLTIAQWRASRYPDNREYLLRNVPRCWHSLQRIATYSHAQFLTRLQQVCPENAR | not soluble
17 | MGSDKIHHHHHHMSDIIQFPNSSKKLYKDIKRAEQDQNYDLMYEYIVQYERQFELTEEIAMMKCRMLYETGSFLELREETIVLLKTGIQQYDALMIYYVKSLIGLGQYFEAVEVIHQIIDEVKDHKTRMALHPLKEFAKSKLIEDEKRLTQSLTDFDTLSMREQTHLILKLIDNGHFQFQETVLYILKSNTYSYNLISLMIEYLRFANCTQELTIEKYGMDVTFVPANLNGLEHTTLKEKVIPNVMETLNDGALHIAEEAHHIMNNHSIMIYPIDIETLFETNKWINAYECYFKNMLGLKCELQSIDAFNFIQQLDLNNNS | not soluble

Source: the DeepSol protein solubility set
